Consider six molecules from paper PMC8373988, “Structures of a deAMPylation complex rationalise the switch between antagonistic catalytic activities of FICD” (Nature Communications, 2021).

Data set [1] deals with T1, lid-truncated BiP^T229A-V461F-AMP (residues 27–549) (Chinese hamster, UniProt G3I8R9 27-549, T229A | V461F, AMP covalently attached to Thr518 (Thr518-AMP)).
T1 construct: Chinese hamster BiP residues 27–549 (all but helix A of SBDα removed); identical to human BiP over this range; also called AMPylated BiP; BiP-AMP; source: E. coli, purified (Ni-NTA, Ulp1 cleavage, anion exchange, gel filtration); AMPylated in vitro with GST-TEV-FICD^E234G; not shown: His6-Smt3, N-terminal, cleaved
Put plainly: crystal structure; heterodimer copurified by gel filtration (FICD:BiP-AMP mixed 1.5:1 with 250 µM ATP, 50 mM KCl, 2 mM MgCl2; TNKMT buffer), sitting drop vapour diffusion at 25 °C; two crystal forms (state 1, state 2). To be noted: both partners purified. On the technique in general: SEC sorts molecules by how far they enter the pores of the column.

The target in data set [2] is T2, AMPylated biotinylated-AviTag-haBiP^T229A-V461F (residues 27–635) (Chinese hamster, UniProt G3I8R9 27-635, T229A | V461F, AMP covalently attached to Thr518 (Thr518-AMP); biotin on the N-terminal Avi-tag).
T2 construct: Chinese hamster BiP residues 27–635; identical to human BiP over this range; A GS linker stands between the Avi-tag and BiP residue 27; also called AMPylated BiP; BiP-AMP; source: E. coli, purified; AMPylated in vitro with GST-TEV-FICD^E234G, biotinylated in vitro with GST-BirA, made nucleotide-free, MonoQ; not shown: His6-Smt3, N-terminal, cleaved; Avi-tag (biotinylated), N-terminal, kept
The experiment in a line: BLI; biotinylated BiP or BiP-AMP immobilised on streptavidin biosensors, activated in 2 mM ATP for 200 s; apo FICD analytes at 50 nM unless otherwise specified; HKM with 0.05% Triton X-100, 30 °C; second dissociation step with 2 mM ATP. To be noted: both partners purified. (In general: BLI is a label-free optical method that tracks binding on a fibre tip over time.)

Data set [3] deals with T3, biotinylated-AviTag-haBiP^T229A-V461F (residues 27–635), unmodified (Chinese hamster, UniProt G3I8R9 27-635, T229A | V461F, biotin on the N-terminal Avi-tag).
T3 construct: Chinese hamster BiP residues 27–635; identical to human BiP over this range; A GS linker stands between the Avi-tag and BiP residue 27; also called unmodified BiP; BiP:ATP; source: E. coli, purified; biotinylated in vitro with GST-BirA, made nucleotide-free, MonoQ; not shown: His6-Smt3, N-terminal, cleaved; Avi-tag (biotinylated), N-terminal, kept
The data set is described as above. The following applies: both partners purified.

Data set [4] concerns the molecule itself. The experiment in a line: contrast variation small-angle neutron scattering (SANS); complexes of partially deuterated and non-deuterated FICD^H363A and BiP-AMP copurified by gel filtration (1.25:1 BiP-AMP:FICD, 250 µM ATP) in TNKMT(0.2) at various %D2O; 4.3–5.5 mg/ml, 12 °C.
Data set [5] has as its target T4, BiP^T229A-V461F-AMP (residues 27–635), 'full-length' AMPylated BiP (Chinese hamster, UniProt G3I8R9 27-635, T229A | V461F, AMP covalently attached to Thr518 (Thr518-AMP)).
T4 construct: Chinese hamster BiP residues 27–635 (lacks the unstructured acidic N-terminal region and the C-terminal region with KDEL); identical to human BiP over this range; The deAMPylation assays used BiP^T229A-V461F (UK2521) AMPylated in vitro; also called full-length BiP-AMP; hBiP-AMP; source: E. coli, purified (Ni-NTA, Ulp1 cleavage, anion exchange, gel filtration); AMPylated in vitro with …
Described as above. The following applies: both partners purified.

For data set [6], the target named is T3, biotinylated-AviTag-haBiP^T229A-V461F …. Put plainly: BLI; biotinylated BiP immobilised on streptavidin biosensor, activated with 2 mM ATP (BiP:ATP); TPR domain 62.5 nM to 16 µM, 50 s association and 50 s dissociation; HKMTx, 30 °C; one-phase global fit and steady-state one site fit. The following applies: both partners purified.
Data set [7] has the same target. Put plainly: BLI; biotinylated nucleotide-free BiP (BiP:Apo) immobilised on streptavidin biosensor, before ATP activation; 16 µM TPR domain for 50 s; HKMTx, 30 °C. The following applies: both partners purified.

T3 sequence (G3I8R9 27-635 T229A/V461F): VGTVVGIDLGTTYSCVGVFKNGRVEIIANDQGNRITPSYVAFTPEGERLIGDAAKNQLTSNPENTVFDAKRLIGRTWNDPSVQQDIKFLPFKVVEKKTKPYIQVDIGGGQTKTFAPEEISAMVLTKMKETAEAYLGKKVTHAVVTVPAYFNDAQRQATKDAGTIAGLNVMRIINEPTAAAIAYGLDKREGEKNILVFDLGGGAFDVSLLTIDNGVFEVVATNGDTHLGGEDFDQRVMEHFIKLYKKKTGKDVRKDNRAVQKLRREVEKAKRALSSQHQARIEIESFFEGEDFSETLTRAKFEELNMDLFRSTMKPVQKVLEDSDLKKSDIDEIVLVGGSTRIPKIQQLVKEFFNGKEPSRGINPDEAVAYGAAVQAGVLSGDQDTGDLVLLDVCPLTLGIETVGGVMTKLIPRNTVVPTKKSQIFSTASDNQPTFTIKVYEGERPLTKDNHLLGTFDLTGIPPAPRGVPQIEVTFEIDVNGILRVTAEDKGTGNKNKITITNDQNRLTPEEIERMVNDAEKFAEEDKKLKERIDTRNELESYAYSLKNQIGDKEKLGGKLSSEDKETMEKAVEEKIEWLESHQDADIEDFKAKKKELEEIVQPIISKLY
T2 sequence (G3I8R9 27-635 T229A/V461F): as above
T4 sequence (G3I8R9 27-635 T229A/V461F): as above
T1 sequence (G3I8R9 27-549 T229A/V461F): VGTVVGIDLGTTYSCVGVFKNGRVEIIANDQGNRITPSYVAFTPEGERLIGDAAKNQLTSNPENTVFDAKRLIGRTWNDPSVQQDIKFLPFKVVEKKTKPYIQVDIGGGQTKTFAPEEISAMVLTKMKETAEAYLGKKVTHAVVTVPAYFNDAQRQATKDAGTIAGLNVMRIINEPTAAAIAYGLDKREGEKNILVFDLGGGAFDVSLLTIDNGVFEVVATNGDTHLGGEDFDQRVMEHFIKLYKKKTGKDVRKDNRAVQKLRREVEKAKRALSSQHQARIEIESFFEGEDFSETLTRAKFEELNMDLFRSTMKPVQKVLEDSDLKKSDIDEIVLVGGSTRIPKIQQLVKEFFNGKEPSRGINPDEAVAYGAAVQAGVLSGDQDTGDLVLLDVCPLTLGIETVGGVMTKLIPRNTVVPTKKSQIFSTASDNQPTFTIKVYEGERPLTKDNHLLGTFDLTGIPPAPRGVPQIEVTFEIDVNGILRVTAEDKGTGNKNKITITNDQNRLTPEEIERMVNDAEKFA

B1: FICD^L258D-H363A (residues 104–445), monomeric, catalytically inactive (enzyme, human, UniProt Q9BVA6 104-445, looked up)
chain: LEARAALNQALEMKRQGKREKAQKLFMHALKMDPDFVDALTEFGIFSEEDKDIIQADYLYTRALTISPYHEKALVNRDRTLPLVEEIDQRYFSIIDSKVKKVMSIPKGNSALRRVMEETYYHHIYHTVAIEGNTLTLSEIRHILETRYAVPGKSDEEQNEVIGMHAAMKYINTTLVSRIGSVTISDVLEIHRRVLGYVDPVEAGRFRTTQVLVGHHIPPHPQDVEKQMQEFVQWLNSEEAMNLHPVEFAALAHYKLVYIAPFIDGNGRTSRLLMNLILMQAGYPPITIRKEQRSDYYHVLEAANEGDVRPFIRFIAKCTETTLDTLLFATTEYSVALPEAQP
notes: human FICD, predicted structured regions, residues 104–445; L258D makes FICD monomeric; H363A traps the deAMPylation substrate; also called monomeric FICD^L258D-H363A; UK2093; source: E. coli, purified (Ni-NTA, on-bead Ulp1 cleavage, anion exchange, gel filtration); not shown: His6-Smt3, N-terminal, cleaved
In the case of B1, the binding result in data set [1], in data set [2] and in data set [3] was “binds” throughout.

B2: dimeric FICD^H363A(TPRred): FICD^D160C-T183C-H363A-C421S, cysteines reduced (enzyme, human, UniProt Q9BVA6 104-445, looked up)
chain: LEARAALNQALEMKRQGKREKAQKLFMHALKMDPDFVDALTEFGIFSEEDKDIIQACYLYTRALTISPYHEKALVNRDRCLPLVEEIDQRYFSIIDSKVKKVMSIPKGNSALRRVMEETYYHHIYHTVAIEGNTLTLSEIRHILETRYAVPGKSLEEQNEVIGMHAAMKYINTTLVSRIGSVTISDVLEIHRRVLGYVDPVEAGRFRTTQVLVGHHIPPHPQDVEKQMQEFVQWLNSEEAMNLHPVEFAALAHYKLVYIAPFIDGNGRTSRLLMNLILMQAGYPPITIRKEQRSDYYHVLEAANEGDVRPFIRFIAKSTETTLDTLLFATTEYSVALPEAQP
notes: human FICD residues 104–445; The cysteine-reduced form of m11; also called TPRred (dimeric); source: E. coli, purified; not shown: His6-Smt3, N-terminal, cleaved
Consider B2, for which, in data set [2], the binding result is recorded as “binds”.

B3: dimeric FICD^H363A(TPRox): FICD^D160C-T183C-H363A-C421S, oxidised (enzyme, human, UniProt Q9BVA6 104-445, looked up)
chain: LEARAALNQALEMKRQGKREKAQKLFMHALKMDPDFVDALTEFGIFSEEDKDIIQACYLYTRALTISPYHEKALVNRDRCLPLVEEIDQRYFSIIDSKVKKVMSIPKGNSALRRVMEETYYHHIYHTVAIEGNTLTLSEIRHILETRYAVPGKSLEEQNEVIGMHAAMKYINTTLVSRIGSVTISDVLEIHRRVLGYVDPVEAGRFRTTQVLVGHHIPPHPQDVEKQMQEFVQWLNSEEAMNLHPVEFAALAHYKLVYIAPFIDGNGRTSRLLMNLILMQAGYPPITIRKEQRSDYYHVLEAANEGDVRPFIRFIAKSTETTLDTLLFATTEYSVALPEAQP
modifications: intramolecular disulfide bond between Cys160 and Cys183
notes: human FICD residues 104–445; also called TPRox (dimeric); source: E. coli, purified; oxidised with CuSO4 and 1,10-phenanthroline, Capto Q, RESOURCE Q, gel filtration; not shown: His6-Smt3, N-terminal, cleaved
On to B3, for which the binding result in data set [2] is recorded as “binds”.

B4: FICD^H363A (residues 104–445), dimeric, catalytically inactive (enzyme, human, UniProt Q9BVA6 104-445, looked up)
chain: LEARAALNQALEMKRQGKREKAQKLFMHALKMDPDFVDALTEFGIFSEEDKDIIQADYLYTRALTISPYHEKALVNRDRTLPLVEEIDQRYFSIIDSKVKKVMSIPKGNSALRRVMEETYYHHIYHTVAIEGNTLTLSEIRHILETRYAVPGKSLEEQNEVIGMHAAMKYINTTLVSRIGSVTISDVLEIHRRVLGYVDPVEAGRFRTTQVLVGHHIPPHPQDVEKQMQEFVQWLNSEEAMNLHPVEFAALAHYKLVYIAPFIDGNGRTSRLLMNLILMQAGYPPITIRKEQRSDYYHVLEAANEGDVRPFIRFIAKCTETTLDTLLFATTEYSVALPEAQP
notes: human FICD, predicted structured regions, residues 104–445; also called dimeric FICD; dimeric FICD^H363A; source: E. coli, purified (Ni-NTA, on-bead Ulp1 cleavage, anion exchange, gel filtration); matchout-deuterated form from E. coli BL21 Star (DE3), purified; not shown: His6-Smt3, N-terminal, cleaved
For B4, the binding result in data set [4], in data set [5], in data set [2] and in data set [3] was “binds” in each case.

B5: monomeric FICD^L258D-H363A(TPRox): FICD^D160C-T183C-L258D-H363A-C421S, oxidised (enzyme, human, UniProt Q9BVA6 104-445, looked up)
chain: LEARAALNQALEMKRQGKREKAQKLFMHALKMDPDFVDALTEFGIFSEEDKDIIQACYLYTRALTISPYHEKALVNRDRCLPLVEEIDQRYFSIIDSKVKKVMSIPKGNSALRRVMEETYYHHIYHTVAIEGNTLTLSEIRHILETRYAVPGKSDEEQNEVIGMHAAMKYINTTLVSRIGSVTISDVLEIHRRVLGYVDPVEAGRFRTTQVLVGHHIPPHPQDVEKQMQEFVQWLNSEEAMNLHPVEFAALAHYKLVYIAPFIDGNGRTSRLLMNLILMQAGYPPITIRKEQRSDYYHVLEAANEGDVRPFIRFIAKSTETTLDTLLFATTEYSVALPEAQP
modifications: intramolecular disulfide bond between Cys160 and Cys183
notes: human FICD residues 104–445; PDB entries hold the parent m1; also called TPRox (monomeric); source: E. coli, purified; oxidised with CuSO4 and 1,10-phenanthroline, Capto Q, RESOURCE Q, gel filtration; not shown: His6-Smt3, N-terminal, cleaved
In the case of B5, the binding result in data set [2] and in data set [3] was “binds” in each case.

B6: isolated TPR domain of FICD (domain or fragment)
chain: LEARAALNQALEMKRQGKREKAQKLFMHALKMDPDFVDALTEFGIFSEEDKDIIQADYLYTRALTISPYH
In the case of B6, the Kd in data set [6] was 1100 nM; in data set [7], more than 160000 nM.

A word on the Kd: it is the equilibrium constant for the complex coming apart.
